# Positions count from the first letter of the chain named. Names and notes keep the numbering of the source.
# B1: GLS3000 H27dG (Kabat) L chain altered form, one-arm antibody with CE115HA000 (antibody, human IgG1, kappa, L234A L235A, N297A, name in Kabat numbering)
# heavy: QVQLVESGGGVVQPGRSLRLSCAASGFTFSNAWMHWVRQAPGKGLEWVAQIKAKSNNYATYYAESVKGRFTISRDDSKNSLYLQMNSLKTEDTAVYYCRYVHYGAYYGVDAWGQGTTVTVSSASTKGPSVFPLAPSSKSTSGGTAALGCLVKDYFPEPVTVSWNSGALTSGVHTFPAVLQSSGLYSLSSVVTVPSSSLGTQTYICNVNHKPSNTKVDKKVEPKSCDKTHTCPPCPAPEAAGGPSVFLFPPKPKDTLMISRTPEVTCVVVDVSHEDPEVKFNWYVDGVEVHNAKTKPREEQYASTYRVVSVLTVLHQDWLNGKEYKCKVSNKALPAPIEKTISKAKGQPREPQVYTLPPSRCELTKNQVSLSCAVKGFYPSDIAVEWESNGQPENNYKTTPPVLDSDGSFFLVSKLTVDKSRWQQGNVFSCSVMHEALHNHYTQKSLSLSPDYKDDDDK
# chain: EPKSSDKTHTCPPCPAPELLGGPSVFLFPPKPKDTLMISRTPEVTCVVVDVSHEDPEVKFNWYVDGVEVHNAKTKPREEQYNSTYRVVSVLTVLHQDWLNGKEYKCKVSNKALPAPIEKTISKAKGQPREPQVCTLPPSRDELTKNQVSLWCLVKGFYPSDIAVEWESNGQPENNYKTTPPVLDSDGSFFLYSKLTVDKSRWQQGNVFSCSVMHEALHNRYTQKSLSLSP
# light: DIVMTQSPLSLPVTPGEPASISCRSSQSLVGSNRNTYLHWYQQKPGQAPRLLIYKVSNRFSGVPDRFSGSGSGTDFTLKISRVEAEDVGVYYCGQGTQVPYTFGQGTKLEIKRTVAAPSVFIFPPSDEQLKSGTASVVCLLNNFYPREAKVQWKVDNALQSGNSQESVTEQDSKDSTYSLSSTLTLSKADYEKHKVYACEVTHQGLSSPVTKSFNRGEC
# notes: one-arm antibody
# B2: GLS3000 L27bS (Kabat) L chain altered form, one-arm antibody with CE115HA000 (antibody, human IgG1, kappa, L234A L235A, N297A, name in Kabat numbering)
# heavy: B1 heavy
# chain: B1 chain
# light: B1 light with L29S, G31H
# notes: one-arm antibody
# B3: GLS3000 H27dN (Kabat) L chain altered form, one-arm antibody with CE115HA000 (antibody, human IgG1, kappa, L234A L235A, N297A, name in Kabat numbering)
# heavy: B1 heavy
# chain: B1 chain
# light: B1 light with G31N
# notes: one-arm antibody
# B4: GLS3000 H27dY (Kabat) L chain altered form, one-arm antibody with CE115HA000 (antibody, human IgG1, kappa, L234A L235A, N297A, name in Kabat numbering)
# heavy: B1 heavy
# chain: B1 chain
# light: B1 light with G31Y
# notes: one-arm antibody
# B5: GLS3000 N28E (Kabat) L chain altered form, one-arm antibody with CE115HA000 (antibody, human IgG1, kappa, L234A L235A, N297A, name in Kabat numbering)
# heavy: B1 heavy
# chain: B1 chain
# light: B1 light with G31H, N33E
# notes: one-arm antibody
# B6: GLS3000 N28H (Kabat) L chain altered form, one-arm antibody with CE115HA000 (antibody, human IgG1, kappa, L234A L235A, N297A, name in Kabat numbering)
# heavy: B1 heavy
# chain: B1 chain
# light: B1 light with G31H, N33H
# notes: one-arm antibody
# B7: GLS3000 L27bV (Kabat) L chain altered form, one-arm antibody with CE115HA000 (antibody, human IgG1, kappa, L234A L235A, N297A, name in Kabat numbering)
# heavy: B1 heavy
# chain: B1 chain
# light: B1 light with L29V, G31H
# notes: one-arm antibody
# B8: GLS3000 H34A (Kabat) L chain altered form, one-arm antibody with CE115HA000 (antibody, human IgG1, kappa, L234A L235A, N297A, name in Kabat numbering)
# heavy: B1 heavy
# chain: B1 chain
# light: B1 light with G31H, H39A
# notes: one-arm antibody
# B9: GLS3000 H27dV (Kabat) L chain altered form, one-arm antibody with CE115HA000 (antibody, human IgG1, kappa, L234A L235A, N297A, name in Kabat numbering)
# heavy: B1 heavy
# chain: B1 chain
# light: B1 light with G31V
# notes: one-arm antibody
# B10: GLS3000 L27bW (Kabat) L chain altered form, one-arm antibody with CE115HA000 (antibody, human IgG1, kappa, L234A L235A, N297A, name in Kabat numbering)
# heavy: B1 heavy
# chain: B1 chain
# light: B1 light with L29W, G31H
# notes: one-arm antibody
# B11: GLS3000 L27bY (Kabat) L chain altered form, one-arm antibody with CE115HA000 (antibody, human IgG1, kappa, L234A L235A, N297A, name in Kabat numbering)
# heavy: B1 heavy
# chain: B1 chain
# light: B1 light with L29Y, G31H
# notes: one-arm antibody
# B12: GLS3000 L27bD (Kabat) L chain altered form, one-arm antibody with CE115HA000 (antibody, human IgG1, kappa, L234A L235A, N297A, name in Kabat numbering)
# heavy: B1 heavy
# chain: B1 chain
# light: B1 light with L29D, G31H
# notes: one-arm antibody
# B13: GLS3000 H27dI (Kabat) L chain altered form, one-arm antibody with CE115HA000 (antibody, human IgG1, kappa, L234A L235A, N297A, name in Kabat numbering)
# heavy: B1 heavy
# chain: B1 chain
# light: B1 light with G31I
# notes: one-arm antibody
# B14: GLS3000 K50A (Kabat) L chain altered form, one-arm antibody with CE115HA000 (antibody, human IgG1, kappa, L234A L235A, N297A, name in Kabat numbering)
# heavy: B1 heavy
# chain: B1 chain
# light: B1 light with G31H, K55A
# notes: one-arm antibody
# B15: GLS3000 H27dK (Kabat) L chain altered form, one-arm antibody with CE115HA000 (antibody, human IgG1, kappa, L234A L235A, N297A, name in Kabat numbering)
# heavy: B1 heavy
# chain: B1 chain
# light: B1 light with G31K
# notes: one-arm antibody
# B16: GLS3000 H27dQ (Kabat) L chain altered form, one-arm antibody with CE115HA000 (antibody, human IgG1, kappa, L234A L235A, N297A, name in Kabat numbering)
# heavy: B1 heavy
# chain: B1 chain
# light: B1 light with G31Q
# notes: one-arm antibody
# B17: GLS3000 L27bM (Kabat) L chain altered form, one-arm antibody with CE115HA000 (antibody, human IgG1, kappa, L234A L235A, N297A, name in Kabat numbering)
# heavy: B1 heavy
# chain: B1 chain
# light: B1 light with L29M, G31H
# notes: one-arm antibody
# B18: GLS3000 L27bP (Kabat) L chain altered form, one-arm antibody with CE115HA000 (antibody, human IgG1, kappa, L234A L235A, N297A, name in Kabat numbering)
# heavy: B1 heavy
# chain: B1 chain
# light: B1 light with L29P, G31H
# notes: one-arm antibody
# B19: GLS3000 N28D (Kabat) L chain altered form, one-arm antibody with CE115HA000 (antibody, human IgG1, kappa, L234A L235A, N297A, name in Kabat numbering)
# heavy: B1 heavy
# chain: B1 chain
# light: B1 light with G31H, N33D
# notes: one-arm antibody
# B20: GLS3000 L27bE (Kabat) L chain altered form, one-arm antibody with CE115HA000 (antibody, human IgG1, kappa, L234A L235A, N297A, name in Kabat numbering)
# heavy: B1 heavy
# chain: B1 chain
# light: B1 light with L29E, G31H
# notes: one-arm antibody
# B21: GLS3000 N28F (Kabat) L chain altered form, one-arm antibody with CE115HA000 (antibody, human IgG1, kappa, L234A L235A, N297A, name in Kabat numbering)
# heavy: B1 heavy
# chain: B1 chain
# light: B1 light with G31H, N33F
# notes: one-arm antibody
# B22: GLS3000 H27dR (Kabat) L chain altered form, one-arm antibody with CE115HA000 (antibody, human IgG1, kappa, L234A L235A, N297A, name in Kabat numbering)
# heavy: B1 heavy
# chain: B1 chain
# light: B1 light with G31R
# notes: one-arm antibody
# B23: GLS3000 L33A (Kabat) L chain altered form, one-arm antibody with CE115HA000 (antibody, human IgG1, kappa, L234A L235A, N297A, name in Kabat numbering)
# heavy: B1 heavy
# chain: B1 chain
# light: B1 light with G31H, L38A
# notes: one-arm antibody
# B24: GLS3000 N28A (Kabat) L chain altered form, one-arm antibody with CE115HA000 (antibody, human IgG1, kappa, L234A L235A, N297A, name in Kabat numbering)
# heavy: B1 heavy
# chain: B1 chain
# light: B1 light with G31H, N33A
# notes: one-arm antibody
# B25: GLS3000 H27dT (Kabat) L chain altered form, one-arm antibody with CE115HA000 (antibody, human IgG1, kappa, L234A L235A, N297A, name in Kabat numbering)
# heavy: B1 heavy
# chain: B1 chain
# light: B1 light with G31T
# notes: one-arm antibody
# B26: GLS3000 H27dW (Kabat) L chain altered form, one-arm antibody with CE115HA000 (antibody, human IgG1, kappa, L234A L235A, N297A, name in Kabat numbering)
# heavy: B1 heavy
# chain: B1 chain
# light: B1 light with G31W
# notes: one-arm antibody
# B27: GLS3000 L27bF (Kabat) L chain altered form, one-arm antibody with CE115HA000 (antibody, human IgG1, kappa, L234A L235A, N297A, name in Kabat numbering)
# heavy: B1 heavy
# chain: B1 chain
# light: B1 light with L29F, G31H
# notes: one-arm antibody
# B28: GLS3000 H27dP (Kabat) L chain altered form, one-arm antibody with CE115HA000 (antibody, human IgG1, kappa, L234A L235A, N297A, name in Kabat numbering)
# heavy: B1 heavy
# chain: B1 chain
# light: B1 light with G31P
# notes: one-arm antibody
# B29: GLS3000 L27bI (Kabat) L chain altered form, one-arm antibody with CE115HA000 (antibody, human IgG1, kappa, L234A L235A, N297A, name in Kabat numbering)
# heavy: B1 heavy
# chain: B1 chain
# light: B1 light with L29I, G31H
# notes: one-arm antibody
# B30: GLS3000 H27dM (Kabat) L chain altered form, one-arm antibody with CE115HA000 (antibody, human IgG1, kappa, L234A L235A, N297A, name in Kabat numbering)
# heavy: B1 heavy
# chain: B1 chain
# light: B1 light with G31M
# notes: one-arm antibody
# B31: GLS3000 H27dL (Kabat) L chain altered form, one-arm antibody with CE115HA000 (antibody, human IgG1, kappa, L234A L235A, N297A, name in Kabat numbering)
# heavy: B1 heavy
# chain: B1 chain
# light: B1 light with G31L
# notes: one-arm antibody
# B32: GLS3000 N28I (Kabat) L chain altered form, one-arm antibody with CE115HA000 (antibody, human IgG1, kappa, L234A L235A, N297A, name in Kabat numbering)
# heavy: B1 heavy
# chain: B1 chain
# light: B1 light with G31H, N33I
# notes: one-arm antibody
# B33: GLS3000 N28G (Kabat) L chain altered form, one-arm antibody with CE115HA000 (antibody, human IgG1, kappa, L234A L235A, N297A, name in Kabat numbering)
# heavy: B1 heavy
# chain: B1 chain
# light: B1 light with G31H, N33G
# notes: one-arm antibody
# B34: GLS3000 H27dS (Kabat) L chain altered form, one-arm antibody with CE115HA000 (antibody, human IgG1, kappa, L234A L235A, N297A, name in Kabat numbering)
# heavy: B1 heavy
# chain: B1 chain
# light: B1 light with G31S
# notes: one-arm antibody
# Target: T1, CD3 epsilon homodimer protein (UniProt P07766 23-126)
# T1 construct: construct not described; homodimer as printed; also called CD3 (CD3 epsilon)
# T1 sequence (P07766 23-126): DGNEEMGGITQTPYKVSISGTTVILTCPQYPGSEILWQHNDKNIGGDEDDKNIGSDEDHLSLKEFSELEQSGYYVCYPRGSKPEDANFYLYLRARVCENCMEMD
# Assay: SPR Biacore T200, CD3 epsilon homodimer immobilized; vs unaltered GLS3000;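 also: antibody variants flowed as analyte over CD3 epsilon homodimer amine-coupled to a CM4 chip, at 25 °C in HBS-EP+ running buffer, fitted with Biacore T200 Evaluation Software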
row,KD ratio to GLS3000 (Affinity up),Binder
1,3.51,B1
2,0.9,B2
3,3.43,B3
4,1.98,B4
5,5.47,B5
6,3,B6
7,1.11,B7
8,1.18,B8
9,354,B9
10,23.6,B10
11,22.2,B11
12,25.1,B12
13,7.77,B13
14,59.5,B14
15,3.8,B15
16,7.48,B16
17,1.31,B17

row,KD ratio to GLS3000 (Affinity up),Binder
1,0.96,B18
2,4460,B19
3,26.8,B20
4,2.59,B21
5,2.35,B22
6,0.82,B23
7,4.18,B24
8,13000,B25
9,1.86,B26
10,2.67,B27
11,9.21,B28
12,1.17,B29
13,3.43,B30
14,3.37,B31
15,2.81,B32
16,2.41,B33
17,3.05,B34
